Two substances from patent publication US20240092919A1 can be followed below.

For test [1], the target named is human CD123 on cells (human) (UniProt P26951). The test can be described thus: cell-based or functional assay.
Test [2] has as its target human CD33 on cells (human) (UniProt P20138). Nature of the test: cell-based or functional assay.

Chain of human CD123 on cells (human) (P26951 19-378 limits assumed): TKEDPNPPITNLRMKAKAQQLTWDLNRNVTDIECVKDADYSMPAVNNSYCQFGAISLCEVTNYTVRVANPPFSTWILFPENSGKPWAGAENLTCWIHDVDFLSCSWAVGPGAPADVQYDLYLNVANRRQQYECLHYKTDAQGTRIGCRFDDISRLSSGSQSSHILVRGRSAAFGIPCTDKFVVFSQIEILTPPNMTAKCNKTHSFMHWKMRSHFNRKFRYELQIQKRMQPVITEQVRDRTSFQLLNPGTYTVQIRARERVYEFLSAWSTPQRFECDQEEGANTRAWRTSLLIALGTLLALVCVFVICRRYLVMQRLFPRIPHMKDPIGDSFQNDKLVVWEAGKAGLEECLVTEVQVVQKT
Chain of human CD33 on cells (human) (P20138 18-364): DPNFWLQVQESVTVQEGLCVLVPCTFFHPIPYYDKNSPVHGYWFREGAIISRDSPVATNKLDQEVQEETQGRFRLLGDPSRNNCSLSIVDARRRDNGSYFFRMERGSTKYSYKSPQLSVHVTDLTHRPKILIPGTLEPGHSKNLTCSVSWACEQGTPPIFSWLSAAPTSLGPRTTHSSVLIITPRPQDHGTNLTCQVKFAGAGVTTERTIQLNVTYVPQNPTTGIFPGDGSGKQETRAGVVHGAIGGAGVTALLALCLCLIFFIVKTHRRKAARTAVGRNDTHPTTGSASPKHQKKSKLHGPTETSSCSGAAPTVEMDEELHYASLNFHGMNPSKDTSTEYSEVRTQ

In the case of “CD33/CD3 BiTE AMG 330 (bispecific antibody)”, in test [1], the % Lysis, human T cell mediated KG-1a cell killing amounted to 15% and the EC50 (M), flow cytometry based human T cell mediated KG-1a cell killing, E:T 10:1 was 8.7e-12 M. For the same substance, in test [2], the % Lysis, human T cell mediated U-937 cell killing was found to be 55% and the EC50 (M), flow cytometry based human T cell mediated U-937 cell killing, E:T 10:1 came to 1.1e-11 M.
In the case of “CD123/CD3 DART MGD006 (bispecific antibody)”, in test [1], the % Lysis, human T cell mediated KG-1a cell killing is 58% and the EC50 (M), flow cytometry based human T cell mediated KG-1a cell killing, E:T 10:1 is 3e-12 M. For the same substance, in test [2], the % Lysis, human T cell mediated U-937 cell killing was determined as 13% and the EC50 (M), flow cytometry based human T cell mediated U-937 cell killing, E:T 10:1 was determined as 8.9e-13 M.
